Experimental data from article PMC2679210, “Dpr Acts as a Molecular Switch, Inhibiting Wnt Signaling when Unphosphorylated, but Promoting Wnt Signaling when Phosphorylated by Casein Kinase Iδ/ε” (PLoS ONE, 2009).

Biological target: T1, Myc-tagged XDpr1a phosphorylated by CKIδ (Xenopus, UniProt Q8QG92 1-824, phosphorylated by CKIδ; sites not told)
T1 construct: Xenopus Dapper1a (XDpr1a), as m1; also called phosphorylated XDpr1a; XDpr1a in the presence of CKIδ
T1 sequence (looked up): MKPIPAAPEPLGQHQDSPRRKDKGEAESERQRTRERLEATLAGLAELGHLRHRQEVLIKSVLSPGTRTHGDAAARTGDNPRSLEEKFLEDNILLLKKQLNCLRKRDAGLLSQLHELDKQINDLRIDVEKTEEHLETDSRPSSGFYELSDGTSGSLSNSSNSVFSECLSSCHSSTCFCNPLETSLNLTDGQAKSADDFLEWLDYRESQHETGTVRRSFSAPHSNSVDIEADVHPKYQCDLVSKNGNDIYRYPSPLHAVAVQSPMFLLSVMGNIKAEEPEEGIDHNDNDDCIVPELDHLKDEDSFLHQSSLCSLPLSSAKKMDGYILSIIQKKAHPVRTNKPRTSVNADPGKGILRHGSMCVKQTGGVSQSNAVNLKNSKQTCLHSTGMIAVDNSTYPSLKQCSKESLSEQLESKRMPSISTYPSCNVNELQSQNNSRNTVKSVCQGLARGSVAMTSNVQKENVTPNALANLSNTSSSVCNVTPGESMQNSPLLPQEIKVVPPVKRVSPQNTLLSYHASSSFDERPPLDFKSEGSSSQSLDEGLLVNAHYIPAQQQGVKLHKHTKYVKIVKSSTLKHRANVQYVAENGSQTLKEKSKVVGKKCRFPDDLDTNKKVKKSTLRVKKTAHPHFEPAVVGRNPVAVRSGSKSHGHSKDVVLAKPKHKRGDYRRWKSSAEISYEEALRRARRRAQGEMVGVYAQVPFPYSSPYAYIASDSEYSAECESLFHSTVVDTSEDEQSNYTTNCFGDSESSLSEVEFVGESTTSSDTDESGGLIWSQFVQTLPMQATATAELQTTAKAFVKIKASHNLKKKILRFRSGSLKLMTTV
Assay: co-IP; in vitro coimmunoprecipitation: [35S]methionine-labeled Myc:XDpr1a immunoprecipitated with anti-Myc antibodies and protein A agarose, 2 hours at room temperature, from a reaction containing HA-tagged XDsh in the absence or presence of CKIδ; washed three times with 50 mM Tris-HCl pH 7.4, 137 mM NaCl; SDS-PAGE, autoradiography, PhosphorImager quantitation (n = 4 trials)
Conditions: partners not purified

coimmunoprecipitation relative to the control without CKIδ: ~0.5 relative to no CKIδ (1.0)
B1: HA-tagged XDsh phosphorylated by CKIδ (natural protein, Xenopus, UniProt P51142 1-736, looked up)
chain: MAETKVIYHLDEEETPYLVKVPVPATDIRLRDFKAALGRGHAKYFFKAMDQDFGVVKEEISDDNAKLPCFNDRVVSWLASSEGSQPDSAPPAPATEVRPEPPPPVPPPIPPPPAERTSGIGDSRPPSFHPNVSGSTEQLDQDNESVISMRRDRVRRRESSEQAGVGRGVNGRTERHLSGYESSSTLLTSEIETSICDSEEDDTMSRFSSSTEQSSASRLLKRHRRRRKQRPPRLERTSSFSSVTDSTMSLNIITVTLNMEKYNFLGISIVGQSNERGDGGIYIGSIMKGGAVAADGRIEPGDMLLQVNDINFENMSNDDAVRVLRDIVHKPGPIVLTVAKCWDPSPQGYFTLPRNEPIHPIDPAAWVSHSAALSGSFPVYPGSASMSSMTSSTSVTETELSHALPPVSLFSLSVHTDLASVVKVMASPESGLEVRDRMWLKITIPNAFLGSDVVDWLYHHVEGFQDRREARKFASNLLKAGFIRHTVNKITFSEQCYYIFGDLTGCENYMTNLSLNDNDGSSGASDQDTLAPLPLPGASPWPLLPTFSYQYQAPHPYSTQPPAYHELSSYSYGMGSAGSQHSEGSRSSGSNRSDGGRGMQKDDRSGVAGVGGGDSKSGSGSESEYSTRSSIRRVGGGEAGPPSERSTSSRLPPHHPPSVHSYAAPGVPLSYNPMMLMMMPPPPLPPPGVCPPNSSVPPGAPPLVRDLASVPPELTATRQSFHMAMGNPSEFFVDVM
modifications: phosphorylated by CKIδ; sites not told
notes: Xenopus disheveled (XDsh), as m2; also called phosphorylated XDsh; XDsh in the presence of CKIδ
